Experimental data as given in patent publication US20210087522.

Legend:
[1] = target: T1, SsPCP, PCP of a thaxtomin cluster from Streptomyces scabiei 87.22
T1 chain: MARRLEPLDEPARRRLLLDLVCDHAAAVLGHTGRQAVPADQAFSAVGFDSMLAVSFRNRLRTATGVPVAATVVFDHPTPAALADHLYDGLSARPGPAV

[2] = target: T2, AFACP, ACP of the FAS from Anabaena
T2 chain: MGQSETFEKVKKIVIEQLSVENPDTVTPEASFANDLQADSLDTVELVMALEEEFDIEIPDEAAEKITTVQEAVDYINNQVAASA

[3] = target: T3, MACP, CP of an uncharacterized NRP/PK gene cluster from M. aeruginosa NIES843
T3 chain: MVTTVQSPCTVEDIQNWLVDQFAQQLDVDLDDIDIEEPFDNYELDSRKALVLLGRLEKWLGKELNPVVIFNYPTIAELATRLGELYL

[4] = target: T4, SFACP, ACP of the FAS from Synechocystis
T4 chain: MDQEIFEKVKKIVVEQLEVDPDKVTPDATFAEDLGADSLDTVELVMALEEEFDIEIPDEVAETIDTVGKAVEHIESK

[5] = target: T5, APNPCP, CP of an uncharacterized NRP/PK gene cluster from Anabaena
T5 chain: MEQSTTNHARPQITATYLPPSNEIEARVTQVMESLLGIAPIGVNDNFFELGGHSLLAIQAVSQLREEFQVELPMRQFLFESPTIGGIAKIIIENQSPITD

[6] = target: ScACP, ACP of a putative concanamycin gene cluster from Streptomyces coelicolor A(3)2
[7] = target: AprACP, ACP of the apratoxin (PK/NRP) gene cluster in Lyngbya sp.
[8] = target: T6, APACP, ACP of the glycolipid PKS in Anabaena
T6 chain: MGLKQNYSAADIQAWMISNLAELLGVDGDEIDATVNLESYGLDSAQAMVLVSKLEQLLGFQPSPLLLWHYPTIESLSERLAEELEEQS

[9] = target: T7, FNPCP, CP of an uncharacterized NRP gene cluster from Fischerella
T7 chain: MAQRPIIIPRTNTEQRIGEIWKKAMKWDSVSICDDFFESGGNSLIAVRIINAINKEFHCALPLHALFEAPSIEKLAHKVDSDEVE

[10] = target: T8, FNsACP, homolog of ArCPNp from Fischerella
T8 chain: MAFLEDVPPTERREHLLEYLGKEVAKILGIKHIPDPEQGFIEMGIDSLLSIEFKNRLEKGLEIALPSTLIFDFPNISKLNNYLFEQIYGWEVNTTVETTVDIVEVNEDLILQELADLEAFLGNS

[11] = target: T9, FisPCP, PCP of the shinorine gene cluster from Fischerella
T9 chain: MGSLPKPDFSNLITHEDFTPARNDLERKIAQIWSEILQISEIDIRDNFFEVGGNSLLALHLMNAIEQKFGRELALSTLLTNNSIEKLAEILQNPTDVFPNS

B1: SePPT, Sfp-like phosphopantetheinyl transferase (PPTase) from Synechococcus elongatus PCC7942 (protein)
chain: MQRPNPSDAVPVPSIPSCDRGPIPNPVTWRTSPEPLFLSAQTVHLWRCSLTRSLSSAEQAIVAADCDRAQAYGSNRRHQFLCGRWWLRQLLSLYLPEEPADFRFQLSPTGKPELPQSNLCFNLSHSGSTLLIAIAWQPVGVDVEQPRSRSWLALARRYFPSAELAAMQQSTDCDRWGLASWVCKEAWIKAQGRTLANSLRHLQCAWTANGQPRLSGLGSEESQVQLLQVDPQEQLWAAIAMPAGWNYQTWTAAIIRKNH
For B1, the “phosphopantetheinylation of CP (apo to holo), LC-MS; no activity” value (shortened to “phosphopantetheinylation of CP … no activity”) [1] was “SePPT showed no activity toward APNPCP, MACP, ScACP, and SsPCP”, the “relative activity (most active PPTase = 100%)” value [2] was “SePPT demonstrated strong activity toward two ACPs of FASs but no others” and the “phosphopantetheinylation of CP … no activity” value [3] was “SePPT showed no activity toward APNPCP, MACP, ScACP, and SsPCP”. The “relative activity (most active PPTase = 100%)” value [4] was “SePPT demonstrated strong activity toward two ACPs of FASs but no others”, the “phosphopantetheinylation of CP … no activity” value [5] was “SePPT showed no activity toward APNPCP, MACP, ScACP, and SsPCP” and the “phosphopantetheinylation of CP … no activity” value [6] was “SePPT showed no activity toward APNPCP, MACP, ScACP, and SsPCP”.

B2: Sfp, phosphopantetheinyl transferase from Bacillus subtilis (protein)
chain: MKIYGIYMDRPLSQEENERFMTFISPEKREKCRRFYHKEDAHRTLLGDVLVRSVISRQYQLDKSDIRFSTQEYGKPCIPDLPDAHFNISHSGRWVIGAFDSQPIGIDIEKTKPISLEIAKRFFSKTEYSDLLAKDKDEQTDYFYHLWSMKESFIKQEGKGLSLPLDSFSVRLHQDGQVSIELPDSHSPCYIKTYEVDPGYKMAVCAAHPDFPEDITMVSYEELL
With B2 the Km [7] was 9 µM, the kcat [7] was 0.0483 s⁻¹ and the kcat/Km [7] was 5000 M⁻¹ s⁻¹. The “phosphopantetheinylation of CP (apo to holo), LC-MS” value [7] was “APPT, AvPPT, MPPT and Sfp functionalized all substrates”, the Km [1] was 7.9 µM and the kcat [1] was 0.278 s⁻¹. The kcat/Km [1] was 35000 M⁻¹ s⁻¹, the “phosphopantetheinylation of CP (apo to holo), LC-MS” value [1] was “APPT, AvPPT, MPPT and Sfp functionalized all substrates” and the “relative activity (most active PPTase = 100%)” value [1] was “Among all PPTases, Sfp showed the highest relative activity toward ScACP and SsPCP”. For the same protein, the Km [2] was 11.6 µM, the kcat [2] was 0.163 s⁻¹ and the kcat/Km [2] was 13300 M⁻¹ s⁻¹. For the same protein, the “phosphopantetheinylation of CP (apo to holo), LC-MS” value [2] was “APPT, AvPPT, MPPT and Sfp functionalized all substrates”, the Km [8] was 15.3 µM and the kcat [8] was 0.368 s⁻¹. The kcat/Km [8] was 25000 M⁻¹ s⁻¹, the “phosphopantetheinylation of CP (apo to holo), LC-MS” value [8] was “APPT, AvPPT, MPPT and Sfp functionalized all substrates” and the Km [3] was 6.7 µM. The kcat [3] was 0.085 s⁻¹, the kcat/Km [3] was 13300 M⁻¹ s⁻¹ and the “phosphopantetheinylation of CP (apo to holo), LC-MS” value [3] was “APPT, AvPPT, MPPT and Sfp functionalized all substrates”. The Km [9] was 11.7 µM, the kcat [9] was 0.242 s⁻¹ and the kcat/Km [9] was 20000 M⁻¹ s⁻¹. The “phosphopantetheinylation of CP (apo to holo), LC-MS” value [9] was “APPT, AvPPT, MPPT and Sfp functionalized all substrates”, the Km [10] was 10.9 µM and the kcat [10] was 0.04 s⁻¹. The kcat/Km [10] was 3330 M⁻¹ s⁻¹, the “phosphopantetheinylation of CP (apo to holo), LC-MS” value [10] was “APPT, AvPPT, MPPT and Sfp functionalized all substrates” and the Km [11] was 14 µM. For the same protein, the kcat [11] was 0.0283 s⁻¹, the kcat/Km [11] was 1670 M⁻¹ s⁻¹ and the “phosphopantetheinylation of CP (apo to holo), LC-MS” value [11] was “APPT, AvPPT, MPPT and Sfp functionalized all substrates”. It also gave a Km [4] of 2.5 µM, a kcat [4] of 0.0367 s⁻¹ and a kcat/Km [4] of 15000 M⁻¹ s⁻¹. The “phosphopantetheinylation of CP (apo to holo), LC-MS” value [4] was “APPT, AvPPT, MPPT and Sfp functionalized all substrates”, the Km [5] was 12 µM and the kcat [5] was 0.0367 s⁻¹. The kcat/Km [5] was 3330 M⁻¹ s⁻¹, the “phosphopantetheinylation of CP (apo to holo), LC-MS” value [5] was “APPT, AvPPT, MPPT and Sfp functionalized all substrates” and the Km [6] was 8.3 µM. The kcat [6] was 0.253 s⁻¹, the kcat/Km [6] was 30000 M⁻¹ s⁻¹ and the “phosphopantetheinylation of CP (apo to holo), LC-MS” value [6] was “APPT, AvPPT, MPPT and Sfp functionalized all substrates”. For the same protein, the “relative activity (most active PPTase = 100%)” value [6] was “Among all PPTases, Sfp showed the highest relative activity toward ScACP and SsPCP”.

B3: FPPT, Sfp-like phosphopantetheinyl transferase (PPTase) from Fischerella sp. PCC9339 (protein)
chain: MGSETNHLWLTAPTNLTLLPDDVHVWRISLDRPESELQALQTTLSSDEIARAQRFYFEQHRQRFVAGRGILRTILGRYLGVEPQAVEFTYELRGKPLLADRFADSGVSFNLSHSQDLALCGVSRNRKIGIDVEYMRSVSDVEALAERFFAPREYEVVRSLPSNQQQQVFFRYWTCKEAYLKAIGVGIVQLEKVEISLTLEQPAKLITDEEWSLIELVPGDHYLGAVAIAGQNLDLKYWQY
In the case of B3, the “phosphopantetheinylation of CP (apo to holo), LC-MS; low activity” value [1] is reported as “FPPT shared the same substrate scope as SePPT with the exception of its low activity toward SsPCP”, the “relative activity (most active PPTase = 100%)” value [1] is reported as “FPPT was not competent to activate SsPCP, APACP, APNPCP, MACP, and ScACP” and the “phosphopantetheinylation of CP … no activity” value [3] is reported as “FPPT shared the same substrate scope as SePPT with the exception of its low activity toward SsPCP”. The “relative activity (most active PPTase = 100%)” value [3] was “FPPT was not competent to activate SsPCP, APACP, APNPCP, MACP, and ScACP”, the “phosphopantetheinylation of CP … no activity” value [5] was “FPPT shared the same substrate scope as SePPT with the exception of its low activity toward SsPCP” and the “phosphopantetheinylation of CP … no activity” value [6] was “FPPT shared the same substrate scope as SePPT with the exception of its low activity toward SsPCP”.
